Among the data in PMC13623127 (PLOS One, 2026) are Kd and koff values, retold here.

What all share (assay): SPR; TNFSF member immobilised on ProteOn GLH chip by amine coupling (up to 5,000-14,500 RU); S100 analyte 62.5 nM to 16 uM, 300 s at 30 uL/min; 25°C; 10 mM HEPES-NaOH, 150 mM NaCl, 0.05% TWEEN 20, 1 mM CaCl2, pH 7.4; heterogeneous ligand, one-site or two-state model; constants averaged over analyte concentrations (SD, n = 2-9)
Conditions in all cases: both partners purified
In general terms: Surface plasmon resonance follows binding to a sensor surface in real time, without labels.

Test [1] deals with T1, A proliferation-inducing ligand (TNF ligand superfamily member 13), recombinant soluble form (human, UniProt O75888 105-250).
T1 construct: A proliferation-inducing ligand (TNF ligand superfamily member 13), human, recombinant soluble form; also called APRIL
T1 sequence (looked up): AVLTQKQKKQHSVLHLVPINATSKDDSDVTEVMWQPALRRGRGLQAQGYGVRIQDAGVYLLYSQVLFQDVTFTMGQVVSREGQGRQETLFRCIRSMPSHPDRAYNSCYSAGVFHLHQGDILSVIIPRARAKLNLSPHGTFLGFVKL

Test [2] deals with T2, vascular endothelial cell growth inhibitor (TNF ligand superfamily member 15), recombinant soluble form (human, UniProt O95150 72-251).
T2 construct: also called VEGI
T2 sequence (looked up): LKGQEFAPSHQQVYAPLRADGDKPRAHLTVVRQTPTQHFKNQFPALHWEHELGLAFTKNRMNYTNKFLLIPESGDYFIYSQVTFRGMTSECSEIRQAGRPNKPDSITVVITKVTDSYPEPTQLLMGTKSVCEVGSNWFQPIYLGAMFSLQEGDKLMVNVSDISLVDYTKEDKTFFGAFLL

Test [3] addresses T3, activation-inducible TNF-related ligand (TNF ligand superfamily member 18), recombinant soluble form (human, UniProt Q9UNG2 49-177).
T3 construct: also called AITRL
T3 sequence (looked up): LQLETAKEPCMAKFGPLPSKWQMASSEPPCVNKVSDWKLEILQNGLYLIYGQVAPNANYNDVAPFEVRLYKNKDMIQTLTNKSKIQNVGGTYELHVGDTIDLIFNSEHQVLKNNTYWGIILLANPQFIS

Test [4] addresses T4, TNF-related weak inducer of apoptosis (TNF ligand superfamily member 12), recombinant soluble form (human, UniProt O43508 94-249).
T4 construct: TNF-related weak inducer of apoptosis (TNF ligand superfamily member 12), human, recombinant soluble form; also called TWEAK
T4 sequence (looked up): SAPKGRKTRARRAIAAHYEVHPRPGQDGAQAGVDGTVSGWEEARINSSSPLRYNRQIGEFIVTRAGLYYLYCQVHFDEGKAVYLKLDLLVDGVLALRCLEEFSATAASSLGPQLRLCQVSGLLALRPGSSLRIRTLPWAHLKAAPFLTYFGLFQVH

B1: recombinant tag-free human S100A2 (natural protein)
chain: not shown
notes: S100A2, human, recombinant, tag-free; Tag-free
In the case of B1, in test [1], the Kd (in general, the constant that tells how readily two partners part at equilibrium) worked out at 684 nM and the koff (usually a measure of how fast the partners let go of each other) was 0.00122 s⁻¹.

B2: recombinant tag-free human S100P (natural protein, UniProt P25815 1-95, looked up)
chain: MTELETAMGMIIDVFSRYSGSEGSTQTLTKGELKVLMEKELPGFLQSGKDKDAVDKLLKDLDANGDAQVDFSEFIVFVAAITSACHKYFEKAGLK
notes: S100P, human, recombinant, tag-free; Tag-free
As for B2, in test [2], the Kd was found to be 11100 nM and the koff is 0.0123 s⁻¹.

B3: recombinant tag-free human S100B (natural protein, UniProt P04271 1-92, looked up)
chain: MSELEKAMVALIDVFHQYSGREGDKHKLKKSELKELINNELSHFLEEIKEQEVVDKVMETLDNDGDGECDFQEFMAFVAMVTTACHEFFEHE
notes: S100B, human, recombinant, tag-free; Tag-free
In the case of B3, in test [3], the Kd was determined as 12000 nM and the koff turned out to be 0.00626 s⁻¹.

B4: recombinant tag-free human S100A5 (natural protein, UniProt P33763 1-92, looked up)
chain: METPLEKALTTMVTTFHKYSGREGSKLTLSRKELKELIKKELCLGEMKESSIDDLMKSLDKNSDQEIDFKEYSVFLTMLCMAYNDFFLEDNK
notes: S100A5, human, recombinant, tag-free; Tag-free
As to B4, the Kd in test [4] is 75.7 nM; in test [3] it was 409 nM; in test [1], 11 nM. The koff in test [4] amounted to 3.29e-05 s⁻¹; in test [3], 0.000275 s⁻¹; in test [1], 4.85e-06 s⁻¹.
